Target: Cav3.1-GFP wild type (human) (UniProt O43497)
Chain of UniProt O43497 (O43497 whole entry): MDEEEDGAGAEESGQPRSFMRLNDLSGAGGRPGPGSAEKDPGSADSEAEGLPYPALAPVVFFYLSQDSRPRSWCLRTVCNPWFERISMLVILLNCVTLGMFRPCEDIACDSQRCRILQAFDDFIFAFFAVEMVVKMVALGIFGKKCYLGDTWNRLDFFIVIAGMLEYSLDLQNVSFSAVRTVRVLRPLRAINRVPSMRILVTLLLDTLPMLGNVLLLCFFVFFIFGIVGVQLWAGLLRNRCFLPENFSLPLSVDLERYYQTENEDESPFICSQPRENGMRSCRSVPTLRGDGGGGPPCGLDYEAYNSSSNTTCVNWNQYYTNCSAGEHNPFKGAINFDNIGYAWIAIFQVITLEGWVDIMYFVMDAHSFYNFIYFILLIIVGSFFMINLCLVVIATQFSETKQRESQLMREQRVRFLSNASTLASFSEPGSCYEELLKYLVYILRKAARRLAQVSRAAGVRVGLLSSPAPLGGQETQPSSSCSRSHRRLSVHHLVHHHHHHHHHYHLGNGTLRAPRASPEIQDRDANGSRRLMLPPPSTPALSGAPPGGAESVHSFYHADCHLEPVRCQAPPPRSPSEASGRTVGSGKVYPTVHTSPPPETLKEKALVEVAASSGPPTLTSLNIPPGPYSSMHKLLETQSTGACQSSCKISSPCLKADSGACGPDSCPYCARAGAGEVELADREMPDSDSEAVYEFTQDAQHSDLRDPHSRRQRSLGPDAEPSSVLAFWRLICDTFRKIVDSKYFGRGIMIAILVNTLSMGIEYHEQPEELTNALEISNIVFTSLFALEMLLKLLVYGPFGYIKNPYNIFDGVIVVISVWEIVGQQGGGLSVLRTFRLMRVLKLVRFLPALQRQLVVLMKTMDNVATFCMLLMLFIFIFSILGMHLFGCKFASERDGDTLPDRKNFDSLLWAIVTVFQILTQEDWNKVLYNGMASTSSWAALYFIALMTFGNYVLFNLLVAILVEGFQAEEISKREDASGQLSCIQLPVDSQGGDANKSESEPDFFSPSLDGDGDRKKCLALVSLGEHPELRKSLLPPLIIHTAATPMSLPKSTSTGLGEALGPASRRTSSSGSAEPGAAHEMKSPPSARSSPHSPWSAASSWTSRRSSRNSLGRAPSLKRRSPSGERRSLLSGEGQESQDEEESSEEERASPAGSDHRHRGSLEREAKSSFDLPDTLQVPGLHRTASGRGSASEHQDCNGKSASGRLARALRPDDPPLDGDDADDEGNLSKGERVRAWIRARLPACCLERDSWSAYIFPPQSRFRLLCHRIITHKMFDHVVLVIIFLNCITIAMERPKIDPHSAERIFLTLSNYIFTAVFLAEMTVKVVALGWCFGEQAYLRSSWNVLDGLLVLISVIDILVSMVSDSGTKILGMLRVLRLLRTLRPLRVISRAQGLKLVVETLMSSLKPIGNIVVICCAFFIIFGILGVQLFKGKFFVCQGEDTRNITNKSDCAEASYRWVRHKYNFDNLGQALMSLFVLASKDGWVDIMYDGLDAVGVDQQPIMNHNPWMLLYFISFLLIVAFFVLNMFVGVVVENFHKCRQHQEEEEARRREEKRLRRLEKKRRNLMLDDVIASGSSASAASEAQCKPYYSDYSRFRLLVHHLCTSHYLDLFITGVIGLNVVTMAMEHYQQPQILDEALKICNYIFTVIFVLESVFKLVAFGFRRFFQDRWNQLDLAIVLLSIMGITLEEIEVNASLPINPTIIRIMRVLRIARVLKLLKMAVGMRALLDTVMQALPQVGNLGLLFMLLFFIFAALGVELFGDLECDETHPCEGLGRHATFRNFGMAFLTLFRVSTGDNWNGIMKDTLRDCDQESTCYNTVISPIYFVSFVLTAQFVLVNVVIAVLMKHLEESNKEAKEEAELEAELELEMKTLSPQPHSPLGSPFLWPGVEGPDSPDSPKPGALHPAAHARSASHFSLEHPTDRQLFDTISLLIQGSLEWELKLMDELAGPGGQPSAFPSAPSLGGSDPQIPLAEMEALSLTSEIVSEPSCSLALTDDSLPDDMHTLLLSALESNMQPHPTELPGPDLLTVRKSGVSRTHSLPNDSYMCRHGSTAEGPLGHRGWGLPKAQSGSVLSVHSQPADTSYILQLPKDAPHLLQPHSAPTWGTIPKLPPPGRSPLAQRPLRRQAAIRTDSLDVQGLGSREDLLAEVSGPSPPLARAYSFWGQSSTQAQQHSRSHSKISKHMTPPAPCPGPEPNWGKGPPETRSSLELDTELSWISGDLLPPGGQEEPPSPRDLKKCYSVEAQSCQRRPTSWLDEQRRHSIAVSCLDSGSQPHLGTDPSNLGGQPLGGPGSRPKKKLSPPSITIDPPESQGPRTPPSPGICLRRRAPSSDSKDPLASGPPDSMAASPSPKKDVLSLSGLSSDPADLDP

cell surface expression of Cav3.1 (surface biotinylation, tsA-201 cells) in the presence of the cell permeant Tat-Cav3.1-CT disruptor peptide against a scrambled Tat peptide: 40%
Substance: spectrin αII (SPTAN1), tsA-201 cells, Q13813 1-2472

Reference: publication PMC5930937
